# Measurements: the DeepSol protein solubility set
# Test: soluble on expression in E. coli; label from the status in PepcDB or PDB records
row,Sequence,soluble on expression in E. coli
1,MGSDKIHHHHHHMARTTDRQRNTRSPRQARRQLNKLLRDPIVKPHNAAAVRIRLDEMMAILQHREYRPEQPSSTNQVNTHGQVQFDLARWYPEGGRLRYTLRPRGALLPIAFTVQDFGNHRKSLTRGLALAVAGAAHQLDQMKAANKLPLIMQPFSDWVHLLAIGLQNWLENGQVVFSLADLNGAYVLTSMPTAPATWLARLFGISLGNPDQSLTDLRRQRQEQADRLTTRLAAKFAIEEAPLVQAANDRAAKSIQLDAATMATLASDQAPLRSQKDVVDRLARGDYIVIDTEFVADRNQLDLTEISLLRVRHHQVDGAFDIFTQLPEDHHVMPFSVKITGITDDLLSQYGQPLPLAKAAVEQLLKHELVVGFALSNDLRALRAGLNVDITPVQAFDVAALARKTFGIGKKHTPSLQHYKEALGVDLPSHTALSDAQTTMALLEHLIWEGSPLITKDIGFEQRPPEHANDPEPYQKPDPSTS,not soluble
2,PAWWGERAHPISEGGRGSAWFVEASFGNAVLRQYRRGGMIAMLNRDRYFWCGGHRTRSVLEFRLMRELISRGLPVPTPLAACYVRHGVQYRAAILMERLEGVSSLAMCVRGNSKEIHWEQIGRMISRFHREGLDHADLNAHNILLDQAGQCWLIDFDRGALRIPATKWREHNLARLLRSLLKIRGERSVDAVYRDFERLCRAY,not soluble
3,PMSEKQLAEVVERTVTPLMKAQAIPGMAVAVIYEGQPHYFTFGKADVAANKPVTPQTLFELGSISKTFTGVLGGDAIARGEISLGDPVTKYWPELTGKQWQGIRMLDLATYTAGGLPLQVPDEVKDNASLLRFYQNWQPQWKPGTTRLYANASIGLFGALAVKPSGMSYEQAITTRVFKPLKLDHTWINVPKAEEAHYAWGYRDGKAVHVSPGMLDAEAYGVKTNVQDMASWVMVNMKPDSLQDNSLRKGLTLAQSRYWRVGAMYQGLGWEMLNWPVDAKTVVEGSDNKVALAPLPAREVNPPAPPVNASWVHKTGSTGGFGSYVAFIPEKQLGIVMLANKSYPNPARVEAAYRILSAL,soluble
4,MAHHHHHHMQSNSAPVSYGAQLRASMQTLRANDTQFEQFTRGLGAVLQQWTALQLVAQHCDSRAPAVLYEDLCAWHKHDGEVYVDDMEVYFEEFFDNIRSARIEDDSMQEVGTVLHDMYCRCCLNDFSLVEHYLETLAMYVQTNPVAMSVNGGTNENLEDDAEEDAELGGDAVCEEGVDNEDEESEPMQAPTPKAPQQPPQPPRHQQQPQRKKRKNTSVRSRDGWNIVQ,not soluble
5,MGSDKIHHHHHHMPDFSYAKITKLVVHFAGNKAREEGTEVSANVLQDIGSEMNQTLASIFLEPFTKDDYYQFSHETDLDFNEVRTFAANMFGAEEEFLDESKKILEHLYSETTHPNIKSGDVWIFFIEGCVVDGDFTNGIGIFKVENKEVFLKNDFNGSEFQIGYDKGITGTDLDKGCLIFNVDHDSGNKVLILDRLNRGDSVYWKDKFLSIDKITDEKFYTEGFVEVCTDYIKQREESLLDKSNFVKATSEYLAGEETLNIAEFARTTIEKPEEITEFNTMVDTFERENNVRFPETFQLDEEKREKLSKKIRKTIKLGKNISVVVKDLEQLEETDFVQGYDEEKGKNYMIVYYD,not soluble
6,MEEINTKEVAQRITTELKRYSIPQAIFAQRVLCRSQGTLSDLLRNPKPWSKLKSGRETFRRMWKWLQEPEFQRMSALRLAACKRKEQEHGKDRGNTPKKPRLVFTDVQRRTLHAIFKENKRPSKELQITISQQLGLELSTVSNFFMNARRRSLDKWLEHHHHHH,soluble
7,EQMQSEFFYTDRKKIKWSLPSQPKVDIVELELLVARFIGEEKATKCFEKFHSMNQTKDNKKFNEAILFHAENTLARVLGSASAKLVTSLAISSRGMAFDQVAKLVEDNSTQQLEFSRTVLQSAIENVSEGISVIDSELKLVAWNKQYLDIFSYPEAFIYIGCPISQLIHFNLSQQGYFAKDIDLRVK,not soluble
8,MKAPELLLPAGGLERMRAAYDYGADAVYAGSPRYSLRARNNEFAKLDVLEQGIKEAHERNKKFFLTVNTLPHNSKLKTFVADMEPLIAMKPDALIMADPGLIMTVREKWPEMPIHLSVQANTTNYWGVKFWQNIGVERIILSRELSMEEIAEIRQECPDIELEVFIHGALCIAYSGRCLLSGYFNHRDPNQGTCTNSCRWDYKVHNATESDAGDAQLLQGFNFEKAQEEANQNFEGINGQKRHPYADKVFLIEESNRPGEMMPIMEDEHGTYIMNSKDLRGIEVVEKLAKIGVDSLKVEGRTKSLYYVARVAQSYRKAIDDAVAGRPFDYSLLSELEGLANRGYTSGFLERHQTQDYQNYLTGHSTAKQSQYVGHVTEIDENGWATVEVKNRFAVSDSLEIIHPSGNQTIKLEQMTRKGQPVDVAPGNGIQVKIPNMQGKEKALIARVLNP,not soluble
9,SQNRVPSSRTVSYFVAKPSSSEMEKLQLGPEDSILRMERIRFADDIPICFEVASIPYSLVSQYGKSEITNSFYKTLEAKSGHKIGHSNQTISAVQASEQIAEYLEIKRGDAILRVRQVSYFENGLPFEYVRTQYAGSRFEFYLEK,soluble
10,VRALLAQNRLVTLCGTGGVGKTRLAIQIASASELRDGLCFVDLAPITESGIVAATAARAVGLPDQPGRSTMDSLRRFIGNRRMLMVLDNCEHLLDACAALVVELLGACPELTILATSREPIGMAGEITWRVPSMSITDEAVELFADRASRVQPGFTIANHNAAAVGEICRRLDGIPLAIEFAAARVRSMSPLEIADGLDDCFRLLAGGVRGAVQRQQTLRASIDWSHALLTETEQILFRRLAPFVGGFDLAAVRAVAAGSDLDPFSVLDQLTLLVDKSLVVADDCQGRTRYRLLETVRRYALEKLGDSGEADVHARHRDYYTALAASLNTPADNDHQRLVARAETEIDNLRAAFAWSRENGHITEALQLASSLQPIWFGRAHLREGLSWFNSILEDQRFHRLAVSTAVRARALADKAMLSTWLATSPVGATDIIAPAQQALAMAREVGDPAALVRALTACGCSSGYNAEAAAPYFAEATDLARAIDDKWTLCQILYWRGVGTCISGDPNALRAAAEECRDLADTIGDRFVSRHCSLWLSLAQMWAGNLTEALELSREITAEAEASNDVPTKVLGLYTQAQVLAYCGASAAHAIAGACIAAATELGGVYQGIGYAAMTYAALAAGDVTAALEASDAARPILRAQPDQVTMHQVLMAQLALAGGDAIAARQFANDAVDATNGWHRMVALTIRARVATARGEPELARDDAHAALACGAELHIYQGMPDAMELLAGLAGEVGSHSEGVRLLGAAAALRQQTRQVRFKIWDAGYQASVTALREAMGDEDFDRAWAEGAALSTDEAIAYAQRGRGERKRPARGWGSLTPTERDVVRLVSEGLSNKDIAKRLFVSPRTVQTHLTHVYAKLGLPSRVQLVDEAARRGSPS,not soluble
11,MRKNKLSFKEKAGAEQEECLCFCEGEASREAMFQAPIELPEGFVVDPAEAVANVTWNADSLSCVSDRCLIQTGPEPDEVGVQFAVRLQGTVTLLVSVSPVRNQYGQGDGAVSVIHNAEIDQVVYYSDESDDCPDISDITIENLVVVPPFYGSPLSVTGTIVLVPEPEPVYAFTANPNDQSVSVIDTNTDTVVTTIALPYNPAGIEITPDKSAVFVLHPNNNVISVIDYDTLTVTATILLDQPPRLIRFIPNHEFAYVFTGTAVYVIGIDTLTVDRSIPVEGYDVAIDPNGLFAYVLNFGIVQKVDLTTGEVTGTIERELIVSTIETNWPERYAYVLEQEFFFNYLTVIDLNTFTISSTQELEYEGEYRMFTSGAEVYLYDGFTGNLYSVSPNGAGVIGNVPQSATDYAFTPNGDFLYATRFIEQSIIVYNTDDYSEETVISLGVSPGAITILEHHHHHH,soluble
12,MTYETVERSKKSQVNLNNKEPFSVLLLGIDTGDDGRVEQGRSDTTIVATVNPRDKQTTLVSLARDTYVDIPGQGKQDKLNHAYAFGGASLAMDTVENYLNIPINHYVSINMAGLKELVNAVGGIEVNNNLTFSQDGYDFTIGKISLDGEQALSYSRMRYEDPNGDYGRQERQRKVIEGIVQKVLSLNSVSNYQEILTAVSDNMKTDLSFDDMKKIALDYRSAFGKVKQDQLQGTGFMQDGVSYQRVDEQELTRVQQELKNQLNTKLEHHHHHH,soluble
13,MSLKPKRILLVNEQRSFQVMMKAMLINIGISRITYANSAEEARRRCQKETFDIYLLDYELGVGENGRQLLESLRDQKLIPPQSVVIMVSGDSSRAMVLSALEAEPDEYLMKPFSQEQFSFRLKRALARRQALESVFSALAKEDLPTLLAACAERADAVPRFANFCRCLQADTQLKLGQAKEARSLMRQLLAGQENSWARLTLGKACHTLGLNEEAVSHLQATLKNTPLMVEAHLWLAESQLALGNDEQAQQELKRAVDISPQSVQLSRRLAEVCLLRHDYAQAKDVLLSLIDLSRNSIHRTPHYLGAYIQSLTLYALNSNDIYHIANLQKQVNSALSRIRDSLMMSEFNYPVFEQICQARVQIALGELLKGKKMLYRANQNWLDQPATMPPSLLGETILALYQLGEFEYAESLQALLAEDEDRLLTTCIQATRDDKTVLERRQRYQQLNELGIKAYQSGELEQALGHFREALRRAPANTGAALNKIQVLLQLMQKNRKSPEFGAECKETLEVLDGIPLNPAQQDRFRKLRQEFTQLSEGHHHHHH,soluble
14,MSLIDIHNHILPNIDDGPTNETEMMDLLKQATTQGVTEIIVTSHHLHPRYTTPIEKVKSCLNHIESLEEVQALNLKFYYGQEIRITDQILNDIDRKVITGINDSRYLLIEFPSNEVPHYTDQLFFELQSKGFVPIIAHPERNKAISQNLDILYDLINKGALSQVTTASLAGISGKKIRKLAIQMIENNLTHFIGSDAHNTEIRPFLMKDLFNDKKLRDYYEDMNGFISNAKLVVDDKKIPKRMPQQDYKQKRWFGLEGHHHHHH,soluble
15,MGSDKIHHHHHHNEAQVSAVKQFVEGFNQKNVQSMQSHTTDDVKWFSISEGAMALETSDKEELGEAMQNYFSGYSSAHAKIVNLVNSGDFISTVEQVKWQNEGKWFMQCSLGVYRFKQNKIASVWYYPAHVCDATNAQVN,not soluble
16,MGSDKIHHHHHHMTAPSPEAWLYMLLQTARELELPWLDLIVDQAEMGARWQSRVGALYPPRMLLQDTPHAEAADEGPVLVRLDANQPQTRLLKLLRQWQGQPRVLALFSGWDYDQLAERLTLCMQASWDKGLQQGVLRFHDPRLFAAVVDALDEPRRQLLLEPAVQWHWLDRDGHARMLDATALQSLPPLEWVHDTLTLEQPHIDALACWHLAETWRQNHLLVPQLYGLDSEEELVRRLAQAHQAADKAKLWSEAERIPVVERMLRENA,not soluble
17,MTDMTYTIALMGNPNTGKSTLFNVLTGLRQHTGNWPGKTVTHAEGECRHRGTLYRIVDLPGTYSLYSNSADEEVARDFLLFQRPDVTIVVVDATALERNLNLALQVLEMTDRVIIAINLMDEAKKKGIHINTKKLAAKLGVPVVPISARNREGIDALLDTVDAMAHGRINTNPLSIRYSPEIERGIAKLLPLVKDVMGDTYPARWIALRLLDGDTSLLQALKQPPQPLIKEGNAYACCGSVKSV,not soluble
18,MASKASGGSTRNGRDSISKRLGVKRYDGQFVKAGNIIVRQRGTRIYPGKNVGMGSDYTLFALKDGYVYFETRRKKKFVSVLSPEEWEKVMAQKNGKVH,not soluble
19,MGSDKIHHHHHHMNAALWISKTGLDAQTKDIAVISNNLANASTIGFKKSRAVFEDLLYQNINQPGGRTAQDTEAPSGLMLGAGTKVVATQKIHTQGDMITSDNALDLMIQGEGFFEIQMPDGSSAYSRNGQFTMDDEGNMVTPGAGYMIQPQVTIPEDALSIIVSQDGEVSVTLQGQPDPAVVGQINLINFVNPTGLQPIGQNLYTETAVSGAPQEGVPGLEGYGMLVQGALETSNVNTTEELVNLIESQRVYEMNSKVISAVDEMLSYINQQM,not soluble
